# Data published in patent US6417168.
# Tests used:
# [1] = molecular target: human epidermal growth factor receptor (EGFR), full-length wild type (human) (UniProt P00533); test: cell-based or functional assay
# [2] = molecular target: ΔEGFR, extracellular-deleted mutant human EGFR (EGFRvIII) (human) (UniProt P00533); test: cell-based or functional assay
substance,measurement,setting,value
"N691stop (truncated rat cellular p185, stop codon for Thr^691) (from UniProt P06494 23-690) (receptor)","EGF-induced down-regulation of cell surface EGFR (flow cytometry), maximum reduction",[1],20 to 25%
"N757 (Nneu K757M, ATP-binding mutant of rat cellular p185) (from UniProt P06494 23-1257) (receptor)","EGF-induced down-regulation of cell surface EGFR (flow cytometry), maximum reduction",[1],20 to 25%
"T691stop neu (truncated rat oncogenic p185neu, stop codon at amino acid 691, val→glu at amino acid 664) (from UniProt P06494 23-687) (receptor)","apoptosis of U87/T691 cells, serum deprivation combined with radiation (DAPI)",[1],33%
same,inhibition of anchorage-independent growth in U87MG parental cells lacking ΔEGFR,[1],75.2%
same,"phosphorylation content of immunoprecipitated p155ΔEGFR monomers (scanning densitometry, PY-20 blot)",[2],33.7%
same,"soft agar growth of U87MG.ΔEGFR/T691s cells, reduction compared to U87MG.ΔEGFR cells",[2],45%
same,"soft agar growth of U87MG.ΔEGFR/T691s cells, reduction compared to parental U87MG cells",[2],41.3%
wildtype cellular rat p185 (Nneu) (from UniProt P06494 23-1257) (receptor),"co-downregulation of cellular p185 with EGFR upon EGF treatment (flow cytometry, M1 cells)",[1],20%
